Results as given in the nanobody polyreactivity screen of Harvey et al. (2022).

Assay: yeast display, Sf9 membrane polyspecificity reagent, FACS + sequencing; frameworks hold sequencing errors
Method in brief: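 Galactose induction of a Saccharomyces cerevisiae BJ5465 synthetic nanobody display library ran 36–48 hours. The cells were then stained for 1 hour at 4 °C with 10% biotinylated, detergent-solubilized Sf9 membrane reagent, pulled down on streptavidin microbeads and FACS-sorted into low and high (top ~1%) gates on expression and reagent-binding fluorescence. Labels for polyreactivity follow the gate of origin.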

## QVQLVESGGGLVQAGGSLRLSCAASGLICTYYAMGWYRQAPGKEWEFVAGISKSTSSTYYADSVKGRFTISRDNAKNTVYLLMISLKPEDTAVYYCAAQGGRNRGYRYYWGQGTQVTLSS
  polyreactivity (PSR sort gate): high polyreactivity

## QVQLVESGGGLVQAGGSLRLSCAASGSTFDKYAMGWYRQAPGKERELVATISQSGASTYYADSVKGRFTISRDNAKNTVYFQMNSLKPEDTAVYYCAAAGGEQTKDYYYWGQGTQVTVSS
  polyreactivity (PSR sort gate): high polyreactivity

## QVQHVESGGGLVQAGGSLRLSCAASGGIFHGYAMGWYRQAPGKERELVAAISRGGSTNYADSVKGRFTISRDNAKNTVYLQMNSLKPQDTAVYYCAARTRWFKGYDYWGQGTQVTVSS
  polyreactivity (PSR sort gate): high polyreactivity

## QVQLVESGGGLVQAGGSLRLSCAASGSIFSIYAMGWYRQAPGKERELVAAISWSGGSTYYADSVKGRFTISRDNAKNTVYLQMTSQKPEDTAVYYCLRQDYHYHPYDYWGQGTQVTVSS
  polyreactivity (PSR sort gate): low polyreactivity

## QVQLVESGGGLVQAGGSLRLSCAASGITFYRNAMGWYRQAPGKERELVAAISRRGGITRYADSVKGRFTISRDNAKNTVYLQMNSLKPEDTAVYYCAVAVNGVSRIKYYYWGQGTQVTVSS
  polyreactivity (PSR sort gate): high polyreactivity

## QVQLVESGGGLVQAGGSLRLSCAASGRIFRYYAMGWYRQAPGKERELVAAISDSSGSTYYADSVKGRFTISRDNAKNSVYLQMNCLKPEDTAVYYCRYYFGSGYYYWGEGTQVTVSS
  polyreactivity (PSR sort gate): high polyreactivity

## QVQLVESGGGLVQAGGSLRLSCAASGSTFDRYAMGWYRQAPGKERELVAAISWSAGRTYYADSVKGRFTISRDNAKNTVYLQMNSLKPEDTAVNYCAADQIVSGTYDYYWGQGTQVTVAS
  polyreactivity (PSR sort gate): low polyreactivity

## QVQLVESGGGLVQAGGSLRLSCAASGSIFRWYDMGWYRQAPGKERELVAAITWSGSTYYADSVKGRFTISRDNAKNTVYLQMNSLKPEDTAVYYCAAGSRYCNAETYSWYDYWGQGTQVTVSS
  polyreactivity (PSR sort gate): high polyreactivity

## QVQLEESGGGLVQAAGSLRLSSAASGSTFRYYAMGWYRQAPGKDRELVAAITRSRGSTYYADSVKGRFTISRDKAKNHVYLQMNSVKQEDTEVYYCAARGQTGYYSGVGYWGQGTQVTVSS
  polyreactivity (PSR sort gate): high polyreactivity

## QLQLEESVGGLVQAGVSLRLSCAASGRTFRRYAMGSDRPAPAKERELVATIRSGDNTNYADSVKGRFTISRDNAKNTFYLQMKSLKPEDTAVYYCNRSPKSGQVTYLYSVNAHYDYWGQGTQVTVSS
  polyreactivity (PSR sort gate): low polyreactivity

## QVQLVESGGGLVQAGGSLRLSCAASGFIFDYYAMGWYRQAPGKERELVGAITSGDSTNYADSVKGRFTISRDNAKNTVYLQMNSLKPEDTAVYYWGQGTQVTVSS
  polyreactivity (PSR sort gate): low polyreactivity

## QVQLVESGGGLVQAGGSLRLSCAASGFIFDVNALGWSRQATGKERELVATISKRGGTTYYADSVKGRFTISRDNAKNTVYLQMYSLKPDDTAVYYCAARHQTLRSYRYDYWGQGTQVTVSS
  polyreactivity (PSR sort gate): low polyreactivity

## QVQLVESGGGLVQAGGSLRLSCAASVITFIDYARGWYRQAPGKERELVAAINSSGGGTYYADSVKGRFTISRDNAKNTVYLQMNSLKPEDTAVYYCAADFWYWGQIDSSDYWGQGTQVTVSS
  polyreactivity (PSR sort gate): low polyreactivity

## QVQLVESGGGLVQAGGSLRLSCAASGSTFDVYAMGWYRQAPGKERELVAAISLGTGITYYADSVKGRFTISRDNAKNTVYFQMNSLKPEDTAVYYCAVAIETGYGAYDGYIYYYWGQGTQVTVSS
  polyreactivity (PSR sort gate): high polyreactivity

## QVQLVESGGGLVQAGGSLRLNCAASGRTLVLYVMGWYRQAPGKERELVAAISRSGGRTYYADSVKGRFTISRDNAKNTVYLQMNSLKPEDTAVYYCAAYTSYASDYWGQGTLVTVSS
  polyreactivity (PSR sort gate): high polyreactivity

## QVQLVESGGGLVQAGGSLRLSCAASGGIFIGYAMGWYRQAPGKERELVAAISYSGGSTYYADSVKGRFTISRDNAKNTVYFQMNSLKPEDTALYYCAAQVERKYRWFNSWGQGTQVTVSS
  polyreactivity (PSR sort gate): high polyreactivity

## QFQLVESGGGLVQAGGSLRLSCAATGRIFYKYAMGWYRQAPRKETELVAAISSSGGRTYYADSVKGRFTISRDNAKNTVYLQMNSLKPEDSAVYYCGARIHYPSLPYDYWGQGTQVTVSS
  polyreactivity (PSR sort gate): low polyreactivity

## QVQLVESGGGLVQAGGSLRLSCAASGRIIAWNDMGWYRQAPGKERELVAAIRWSSGTTYYADSVKGRFTISRDNAKNTVYLQINSLKPEDTAVYYCAAGGHARTWYAYYYWGQGTQVTVSS
  polyreactivity (PSR sort gate): low polyreactivity

## QVQLVESGGGLVQAGGSLRLSCAASGITFLGNAMGWYRQAPGKERELVAAISASGGRTYYADSVKGRFTISRDNAKNTVYLQMNSLKPEDTPVYYCAAASKPWYYYWGQGTQVTVSS
  polyreactivity (PSR sort gate): high polyreactivity

## QVQLVESGGGLVQAGGSLRLSCAASGIIFPSYAMGWYRQAPGKERELVADISNDDSTNYADSVKGRFTISRDNAKNTVYLQMNSLKPEDTAVYYCNAEEWGFWWRYDYWGQGTQVTVSS
  polyreactivity (PSR sort gate): high polyreactivity

## QFQLVESGGCLVQAGGSLRLSCAASGSIFLENTMGWYRQARGKEWEVVAPITSSGDSTYADSVKGRFTIARDNAKNTVYLHMNSLKPEDTAVYYCAAYAGSVRPGDLYGYDYWGQGTQVTVSS
  polyreactivity (PSR sort gate): low polyreactivity

## KVQHVESGGGLVQAGGSLRLSCAASGLIFYRYAMGWYRQAPGKERELVAAISRSGSSTYYADSVKGRFTISRDNAKNTVYLQMNSLKPEDTAVYYCNAGYGWIWDDRGYWGQGSQVTVSS
  polyreactivity (PSR sort gate): high polyreactivity

## QVHLVESGGGLVQAGGILRLSCAASGFIFVRNAMGWYRQERGKEREFVAAINSSGGRTYYADSVKGRFTISRDNAKNTVYLQMNSLKPEDTAVYYCAARSQPKKFYYWGQGTQVTVSS
  polyreactivity (PSR sort gate): high polyreactivity

## QVQLVESGGGLVQAGGSLRLSCAASGFIFNYYGMGWYRQAPGKERELVATISGSGGSTYYADSVKGRFTISRDNAKNTVYLQMNSLKPEDTAVYYCNRYPPVHNVGEAYGTLHGYYWGQGTQVTVSS
  polyreactivity (PSR sort gate): low polyreactivity

## QVQLQESGGGLVQEGGSLRLSCAASGNISPPADMGWYRPAPGKERELVASIGTGGTTNYADSVKGRFTISRDNAKNTVYLQMNSLKPEDTAVYYCNVRYRSAGSRYGYWGQGTQVTVSS
  polyreactivity (PSR sort gate): low polyreactivity

## QVQLVESGGGLVQAGGSLRLSCASSGRIFGVYAMGWYRQAPGKERELVAAITRGASTYYADSVKGRFTISRDNAKNTVYLQMNSLKPEDTAVYYCAVSQDRGIYRKYDYWGQGTQVTVSS
  polyreactivity (PSR sort gate): high polyreactivity

## QVQLVESGGGLVQAGGSLRLSCAASGRIFNRYAMGWYRQAPGKEREFVAAISVRGGTTYYADSVKGRFTISRDNAKNTVYLQMNSLKPEDTAVYYCAARKISKYDYWGQGTQVTVSS
  polyreactivity (PSR sort gate): high polyreactivity

## QVQLVESGGGLVQAGGSLRLSCAASGSIFAYNAMGWYRQAPGKERELVAAITDSGGSTFYADSVKGRFTISRDNAKTTVYLQMNSQKPEDTAVYYCATSGDRLVWGQCTQVTVSS
  polyreactivity (PSR sort gate): low polyreactivity

## QVQLVESGGGLVQAGGSLRLSCAASGLIFTYYAMGWYRQAPGKERELVAAITSGGRTNYADSVKGRFTISRDNAKNTVYLQMNSLKPEDTAVYYCAATSSWRANYRTWVYRYDYWGQGTQVTVSS
  polyreactivity (PSR sort gate): high polyreactivity

## QVQLVESGGGLVQAGGSLRLSCAASGSTFRRYGMGWYRQAPGKEREWVAAISKGGTRTYYADSVKGRFTISRDNAKNTVYLQMNSLKPEDTAVYYCAAAGAPSSTPQKEYYWGQGTQVTVSS
  polyreactivity (PSR sort gate): high polyreactivity

## QVQLVESGGGLVQEGGSLRISCASSGFIFASYAMAWYIQAPGKERELVAAITQSGGITYYADSVKERFTISRDNAKYTVYLQMNSLKPEDTAVFYCNTPLLKRTTRCRERNYWGQGTQVTVSS
  polyreactivity (PSR sort gate): low polyreactivity

## QVQLVESGGGLVQAGGSLRLSCAASGGIFGYYAMGWYRQAPGKERELVAAITLSGGRTYYADSVKGRFTISRDNAKNTVYLQMNSLKPEDTAVYYCAAKGTRRGKERNYWGQGTQVTVSS
  polyreactivity (PSR sort gate): high polyreactivity

## KVHLVESGGGLVQAGGSLRLSSAAYGRTFYNNAMGWYIQAPGKERELVAAISGRGGSTYYADSLKGRFTISRDNAKNTVYVQMNILKPEDTAVYYCAATVKYSPIYDYWGQGTQVSVSS
  polyreactivity (PSR sort gate): high polyreactivity

## QVQLVESGGGLVQAGGSLRLSCAASGSIFDPNAMGWYRKALGKERELVAAITYSGVDTYYADSVKGRFTISLDNAKNTVYLQMNILKPEDTAVYFCAGDNGRVGYDYWGQGTQVTVSS
  polyreactivity (PSR sort gate): low polyreactivity

## QVQLVESGGGLVQAGGSLRLSCAASGSTLEPNAMGWYRQAPGKERELVAAITIGGSTYYADSVKGRFTISRDNAKNTVYLQMNSLKPEDTSVYYCARRVSRYSWRNYWGQGTQVTVSS
  polyreactivity (PSR sort gate): high polyreactivity

## QDQLEESGGGLLQARGSLRLSCAASGSIFTCNGRGWYRQAPGKERELVAAISNGASTNYADSVKGRFTISRDNAKNSVYLQMNSLKPEDTAVYYCAAKSTGRYDYWGQGTQGTVSS
  polyreactivity (PSR sort gate): low polyreactivity

## QVQLVESGGGLVQAGGSLRLSCAASGSTFWSNTMGWYRQAPGKERELVATITDSGGITYYADSVKGRFTISRDNAKNTVYLQMNSLKPEDTAVYYCNVRKTWYGYSVTGRYDYWGQGTQVTVSS
  polyreactivity (PSR sort gate): low polyreactivity

## QVQLVESGGGLVQAGGSLRLSCAASGFIFAFYAMGRYRQAPGKERELVASISRRSGSTYYADSVKGRFTISRDNAKNTVYLQMNSLKPEDTALYYCAADRPPCETYGYDYWGQGTQVTVSS
  polyreactivity (PSR sort gate): low polyreactivity

## QVQLVESGGGLVQAGGSLRLSCAASGFTLTRNAMGWYRQAPGKERELVAAISWSGGTTYYADSVKGRFTISRDNAKNTVYLQMNSLKPEDTADYYCNTASWRAQYYYWGQGTQVTVSS
  polyreactivity (PSR sort gate): high polyreactivity

## QVQLVESGGGLVQAGGSLRLSCAASGRTFFSFNAMGWYRQAPGKERELVAAIDGDGGITYYADSVKGRFTISRDNAKNTVYLQMNSLKPEDTAVYYCAAETLFSYAGEDDYWGQGTQVTVSS
  polyreactivity (PSR sort gate): low polyreactivity

## QVQLVESGGGLVHAGGSLRLSCAASGNIPPGNAMGWYRQAPGKERELVAAITASDGSTYYADSEKGRFTISRDHDKNTVYLQMNSLKPEDTAVYYCAKEQVYTYYLEYEYWGQGTQVTVSS
  polyreactivity (PSR sort gate): high polyreactivity

## QVQLVESGGGLVQAGGSLRLSCAASGSTFPDYAMGWSRPAPGKERELVATINDGDSTSYADSVKGRFTISRDNAKNTVYLQMNSLKTEDTAVYYCAADIRSNRLYDGGYWGQGTQVTVSS
  polyreactivity (PSR sort gate): low polyreactivity

## QVQLVESGGGLVQAGGSLRLSCAASGFTFYYYAMGWYRQAPGKERELVASISSRGGSTYYADSVKGRFTISRDNAKNTVYLQMNSLKPEDTAVYYCAARTRRYKFDYWGQGTQVTVSS
  polyreactivity (PSR sort gate): high polyreactivity
